In assay [1] the target is T1, cynomolgus monkey DR4 with death domain deletion on ExpiCHO-S cells (cynomolgus monkey (Macaca fascicularis)).
T1 construct: also called cynomolgus DR4
T1 chain: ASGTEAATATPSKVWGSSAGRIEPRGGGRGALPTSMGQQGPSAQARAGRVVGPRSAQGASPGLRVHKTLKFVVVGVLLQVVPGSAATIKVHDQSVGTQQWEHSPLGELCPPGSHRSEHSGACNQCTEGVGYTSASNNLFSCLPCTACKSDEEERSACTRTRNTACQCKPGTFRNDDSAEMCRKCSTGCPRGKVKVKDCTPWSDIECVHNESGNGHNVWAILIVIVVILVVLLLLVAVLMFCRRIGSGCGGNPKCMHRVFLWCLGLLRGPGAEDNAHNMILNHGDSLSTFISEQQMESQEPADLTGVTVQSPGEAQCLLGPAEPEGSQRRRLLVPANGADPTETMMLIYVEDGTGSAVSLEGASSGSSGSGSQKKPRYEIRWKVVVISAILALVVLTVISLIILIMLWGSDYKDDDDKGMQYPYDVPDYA
In words: flow cytometry, ExpiCHO-S cells expressing cynomolgus monkey DR4, n = 3. On the procedure: Binding of BisG1-FAPα-FERL/DR4-FERR, BisG1-DR4-FEAL/b12-FEAR and IgG1-DR4-FERR to DR4 of various species commonly used for nonclinical toxicology studies was assessed by flow cytometry using ExpiCHO-S cells transiently expressing DR4 from different animal species. In contrast to other species, rodents only express one DR which has highest homology with human DR5. Therefore, ExpiCHO-S cells transiently expressing rat and mouse DR protein were used instead. All DR constructs lack the intracellular DD to avoid apoptosis of transfected cells upon DR(4) activation. IgG1-b12 was used as negative control.
(In general: In flow cytometry, cells or beads pass a laser one at a time.)

In assay [2] the target is T2, human FAPα (Fibroblast activation protein alpha), cell surface expressed (human, UniProt Q12884 1-760).
T2 construct: Endogenous on human lung fibroblasts and CAFs
T2 sequence: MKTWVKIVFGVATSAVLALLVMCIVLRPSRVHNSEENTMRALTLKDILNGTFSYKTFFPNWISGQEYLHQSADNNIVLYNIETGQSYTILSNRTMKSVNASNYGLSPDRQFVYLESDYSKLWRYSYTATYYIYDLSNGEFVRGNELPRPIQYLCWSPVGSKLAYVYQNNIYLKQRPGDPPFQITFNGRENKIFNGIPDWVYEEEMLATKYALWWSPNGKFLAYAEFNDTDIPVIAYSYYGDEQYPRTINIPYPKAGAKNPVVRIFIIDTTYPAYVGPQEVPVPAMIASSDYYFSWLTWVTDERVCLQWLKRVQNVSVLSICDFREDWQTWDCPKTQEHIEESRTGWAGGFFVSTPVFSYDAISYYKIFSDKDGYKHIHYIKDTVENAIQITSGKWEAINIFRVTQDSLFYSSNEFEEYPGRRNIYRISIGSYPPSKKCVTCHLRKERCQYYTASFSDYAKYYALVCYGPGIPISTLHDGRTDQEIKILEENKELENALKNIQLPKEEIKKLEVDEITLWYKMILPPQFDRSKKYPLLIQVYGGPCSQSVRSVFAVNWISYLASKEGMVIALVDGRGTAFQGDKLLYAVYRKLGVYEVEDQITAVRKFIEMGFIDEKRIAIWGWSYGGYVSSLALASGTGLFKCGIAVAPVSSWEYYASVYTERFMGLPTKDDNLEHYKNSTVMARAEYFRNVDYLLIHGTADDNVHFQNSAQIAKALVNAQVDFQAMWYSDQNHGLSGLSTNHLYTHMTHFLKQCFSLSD
In words: flow cytometry, human lung fibroblasts, n = 1. On the procedure: Human lung fibroblasts and CAFs (50,000 cells/well) were seeded in 96-Well round bottom plates (Greiner Bio-one, Cat #650101). Antibody dilutions were prepared using fluorescence-activated cell sorting (FACS) buffer, consisting of phosphate buffer saline (PBS, Lonza, Cat #BE17-517Q)+1% Bovine Serum Albumin (BSA, Roche, Cat #10735086001)+0.02% Sodium Azide (Bio-World, Cat #41920044-3). Plates were centrifuged, supernatant was removed, cells were resuspended in 50 μL of human Fc Block (BD, Cat #564220, diluted 1:100 in FACS buffer) and 50 μL of viability stain TO-PRO-3 Iodide (Thermo Fisher, Cat #T3605, diluted 1: 25,000 in FACS buffer), and incubated for 15 min at 4° C. Plates were washed three times with FACS buffer. Plates were centrifuged, supernatant was removed, cells were resuspended in 50 μL of antibody dilutions (concentration range 90-0.0005 μg/mL, three-fold dilution steps using FACS buffer) of BisG1-FAPα-FERL/DR4-FERR, BisG1-FAPα-FERL/b12-FERR, BisG1-b12-FERL/b12-FERR (top six concentrations only for CAFs culture) or IgG1-FAPα-FERL (top four concentrations only for CAFs culture) and incubated for 30 min at 4° C. Cells were washed three times with FACS buffer and resuspended in 50 μL of Fluorescein isothiocyanate (FITC)-labeled polyclonal antibody goat anti-mouse IgG1 (Jackson Immuno Research, Cat #109-096-097, diluted 1:100 in FACS buffer). After 30 min incubation at 4° C., cells were washed twice with FACS buffer and resuspended in FACS buffer. Antibody binding to viable cells (TO-PRO-3 negative) was analyzed by flow cytometry on a FACSCelesta™ (BD biosciences) and data were processed using FlowJo_v10.8.1 (FlowJo LLC). Geomean fluorescence intensity, gMFI, was determined and visualized using GraphPad Prism. Binding curves were analyzed using nonlinear regression analysis. The concentration (pg/mL) at which 50% of the maximal effect was observed (EC₅₀) was derived from the fitted curves.
Binding of FAPα-targeting monoclonal antibody clones, IgG1-FAPα-FEAL and IgG1-FAP5-FEAL, and bispecific antibodies carrying a binding arm derived from the two FAPα-binding clones (BisG1-FAPα-FEAL/b12-FEAR and BisG1-FAP5-FEAL/b12-FEAR) to human lung fibroblasts, which endogenously express FAPα, was compared and analyzed by flow cytometry.

B1: IgG1-DR4-FERR (antibody, V domains shown)
VH: QVQLQESGPGLVKPSGTLSLTCAVSGGSISSYSWWSWIRQPPGKGLEWIGELYHSGSTNYNPSLKSRVTISVDKSKNQFSLKLRSVTAADTAVYYCVRGVATIDYWGQGTLVTVSS
VL: QSALTQPPSASGSPGQSVTISCTGTSSDVGGYNFVSWYQQDPGKAPKLLIYEVTKRPSGVPDRFSGSKSGNTASLTVSGLQAEDEADYYCSSYAGSNNVMFGGGTKLTVLG
notes: Bivalent monoclonal IgG1 lambda
In turn, B1 displayed an EC50 in assay [1] of 1.01 µg/mL.

B2: BisG1-FAPα-FEAL/b12-FEAR (bispecific antibody, human IgG1, kappa)
heavy 1: EVQLLESGGGLVQPGGSPRLSCEASGFTFSSYALSWVRQAPGKGLEWVSAISGSGGGRYYADSVKGRFTISRDNSKNTLFLQMNSLRAEDTAVYYCAKEGYSSSGTYWDHWGQGTLVTVSSASTKGPSVFPLAPSSKSTSGGTAALGCLVKDYFPEPVTVSWNSGALTSGVHTFPAVLQSSGLYSLSSVVTVPSSSLGTQTYICNVNHKPSNTKVDKRVEPKSCDKTHTCPPCPAPEFEGGPSVFLFPPKPKDTLMISRTPEVTCVVVAVSHEDPEVKFNWYVDGVEVHNAKTKPREEQYNSTYRVVSVLTVLHQDWLNGKEYKCKVSNKALPAPIEKTISKAKGQPREPQVYTLPPSREEMTKNQVSLTCLVKGFYPSDIAVEWESNGQPENNYKTTPPVLDSDGSFLLYSKLTVDKSRWQQGNVFSCSVMHEALHNHYTQKSLSLSPG
light 1: AIQMTQSPSSVSASVGDRVTITCRASQGVSSWLAWYQQKPGRAPKLLIYVASTLQSGVPSRFSGSGSGTDFTLTINSLQPEDFATYYCQQANSFPPTFGQGTRLEMKRTVAAPSVFIFPPSDEQLKSGTASVVCLLNNFYPREAKVQWKVDNALQSGNSQESVTEQDSKDSTYSLSSTLTLSKADYEKHKVYACEVTHQGLSSPVTKSFNRGEC
heavy 2: QVQLVQSGAEVKKPGASVKVSCQASGYRFSNFVIHWVRQAPGQRFEWMGWINPYNGNKEFSAKFQDRVTFTADTSANTAYMELRSLRSADTAVYYCARVGPYSWDDSPQDNYYMDVWGKGTTVIVSSASTKGPSVFPLAPSSKSTSGGTAALGCLVKDYFPEPVTVSWNSGALTSGVHTFPAVLQSSGLYSLSSVVTVPSSSLGTQTYICNVNHKPSNTKVDKRVEPKSCDKTHTCPPCPAPEFEGGPSVFLFPPKPKDTLMISRTPEVTCVVVAVSHEDPEVKFNWYVDGVEVHNAKTKPREEQYNSTYRVVSVLTVLHQDWLNGKEYKCKVSNKALPAPIEKTISKAKGQPREPQVYTLPPSREEMTKNQVSLTCLVKGFYPSDIAVEWESNGQPENNYKTTPPVLDSDGSFFLYSRLTVDKSRWQQGNVFSCSVMHEALHNHYTQKSLSLSPG
light 2: EIVLTQSPGTLSLSPGERATFSCRSSHSIRSRRVAWYQHKPGQAPRLVIHGVSNRASGISDRFSGSGSGTDFTLTITRVEPEDFALYYCQVYGASSYTFGQGTKLERKRTVAAPSVFIFPPSDEQLKSGTASVVCLLNNFYPREAKVQWKVDNALQSGNSQESVTEQDSKDSTYSLSSTLTLSKADYEKHKVYACEVTHQGLSSPVTKSFNRGEC
notes: Fab-arm exchange of IgG1-FAPα-FEAL and IgG1-b12-FEAR
In assay [2], B2 gave an EC50 of 0.048 µg/mL.

Usually EC50 stands for the concentration needed to bring the measured effect to its halfway point.
